Substitutions are numbered along the chain they refer to. Names may count otherwise.
B1: GLS3000 S56H one-arm antibody (antibody, human IgG1, kappa, L234A L235A, N297A, name in Kabat numbering)
light: DIVMTQSPLSLPVTPGEPASISCRSSQSLVHSNRNTYLHWYQQKPGQAPRLLIYKVSNRFHGVPDRFSGSGSGTDFTLKISRVEAEDVGVYYCGQGTQVPYTFGQGTKLEIKRTVAAPSVFIFPPSDEQLKSGTASVVCLLNNFYPREAKVQWKVDNALQSGNSQESVTEQDSKDSTYSLSSTLTLSKADYEKHKVYACEVTHQGLSSPVTKSFNRGEC
heavy: QVQLVESGGGVVQPGRSLRLSCAASGFTFSNAWMHWVRQAPGKGLEWVAQIKAKSNNYATYYAESVKGRFTISRDDSKNSLYLQMNSLKTEDTAVYYCRYVHYGAYYGVDAWGQGTTVTVSSASTKGPSVFPLAPSSKSTSGGTAALGCLVKDYFPEPVTVSWNSGALTSGVHTFPAVLQSSGLYSLSSVVTVPSSSLGTQTYICNVNHKPSNTKVDKKVEPKSCDKTHTCPPCPAPEAAGGPSVFLFPPKPKDTLMISRTPEVTCVVVDVSHEDPEVKFNWYVDGVEVHNAKTKPREEQYASTYRVVSVLTVLHQDWLNGKEYKCKVSNKALPAPIEKTISKAKGQPREPQVYTLPPSRCELTKNQVSLSCAVKGFYPSDIAVEWESNGQPENNYKTTPPVLDSDGSFFLVSKLTVDKSRWQQGNVFSCSVMHEALHNHYTQKSLSLSPDYKDDDDK
chain: EPKSSDKTHTCPPCPAPELLGGPSVFLFPPKPKDTLMISRTPEVTCVVVDVSHEDPEVKFNWYVDGVEVHNAKTKPREEQYNSTYRVVSVLTVLHQDWLNGKEYKCKVSNKALPAPIEKTISKAKGQPREPQVCTLPPSRDELTKNQVSLWCLVKGFYPSDIAVEWESNGQPENNYKTTPPVLDSDGSFFLYSKLTVDKSRWQQGNVFSCSVMHEALHNRYTQKSLSLSP
B2: GLS3000 S56I one-arm antibody (antibody, human IgG1, kappa, L234A L235A, N297A, name in Kabat numbering)
light: B1 light with H61I
heavy: B1 heavy
chain: B1 chain
B3: GLS3000 S56R one-arm antibody (antibody, human IgG1, kappa, L234A L235A, N297A, name in Kabat numbering)
light: B1 light with H61R
heavy: B1 heavy
chain: B1 chain
B4: GLS3000 S56K one-arm antibody (antibody, human IgG1, kappa, L234A L235A, N297A, name in Kabat numbering)
light: B1 light with H61K
heavy: B1 heavy
chain: B1 chain
B5: GLS3000 S56N one-arm antibody (antibody, human IgG1, kappa, L234A L235A, N297A, name in Kabat numbering)
light: B1 light with H61N
heavy: B1 heavy
chain: B1 chain
B6: GLS3000 S56P one-arm antibody (antibody, human IgG1, kappa, L234A L235A, N297A, name in Kabat numbering)
light: B1 light with H61P
heavy: B1 heavy
chain: B1 chain
B7: GLS3000 S56Q one-arm antibody (antibody, human IgG1, kappa, L234A L235A, N297A, name in Kabat numbering)
light: B1 light with H61Q
heavy: B1 heavy
chain: B1 chain
B8: GLS3000 S56T one-arm antibody (antibody, human IgG1, kappa, L234A L235A, N297A, name in Kabat numbering)
light: B1 light with H61T
heavy: B1 heavy
chain: B1 chain
B9: GLS3000 S56M one-arm antibody (antibody, human IgG1, kappa, L234A L235A, N297A, name in Kabat numbering)
light: B1 light with H61M
heavy: B1 heavy
chain: B1 chain
B10: GLS3000 S56L one-arm antibody (antibody, human IgG1, kappa, L234A L235A, N297A, name in Kabat numbering)
light: B1 light with H61L
heavy: B1 heavy
chain: B1 chain

Molecular target: T1, CD3 epsilon homodimer protein (UniProt P07766 23-126)
T1 construct: Construct of the homodimer is not described; also called CD3 (CD3 epsilon)
Experiment: SPR Biacore T200, CD3e homodimer on chip, antibody analyte;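 also: CD3 epsilon homodimer amine-coupled on CM4 sensor chip, antibodies injected as analyte at 25 °C in HBS-EP+, ratio ≥0.8 taken as binding retained versus unaltered parent antibody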

T1 sequence (P07766 23-126): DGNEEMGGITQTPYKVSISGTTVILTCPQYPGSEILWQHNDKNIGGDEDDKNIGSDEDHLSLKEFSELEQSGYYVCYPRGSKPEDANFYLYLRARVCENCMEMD

Row | ratio of amounts bound (altered form/GLS3000) | Binder
1 | 1.05 | B1
2 | 0.99 | B2
3 | 1.36 | B3
4 | 1.46 | B4
5 | 0.92 | B5
6 | 0.95 | B6
7 | 1.04 | B7
8 | 0.97 | B8
9 | 1.05 | B9
10 | 1.02 | B10

From patent publication US20240270846A1 (published 2024)
